The values below come from patent US6759384.

T1: human factor Xa (Enzyme Research Laboratories, Inc.) (human), P00742
T1 chain 1: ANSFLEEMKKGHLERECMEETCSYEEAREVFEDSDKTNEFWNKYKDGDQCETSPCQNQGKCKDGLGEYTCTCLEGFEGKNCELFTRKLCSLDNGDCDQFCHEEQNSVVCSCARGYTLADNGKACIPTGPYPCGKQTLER
T1 chain 2: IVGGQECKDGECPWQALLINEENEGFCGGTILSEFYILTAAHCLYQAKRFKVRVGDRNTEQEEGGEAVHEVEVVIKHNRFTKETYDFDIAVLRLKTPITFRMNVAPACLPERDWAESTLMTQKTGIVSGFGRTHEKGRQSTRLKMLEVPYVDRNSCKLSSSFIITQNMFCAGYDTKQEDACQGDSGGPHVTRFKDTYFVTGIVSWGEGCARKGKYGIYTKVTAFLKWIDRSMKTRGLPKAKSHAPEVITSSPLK

No end group written: not given here.

The target in this assay is T1, human factor Xa (Enzyme Research …). Kind of assay: chromogenic FXa inhibition.
For EYIRK-NH2 [E-Y-I-R-K-NH2], the Ki was < 100 µM.

As for GYIRH-NH2 [G-Y-I-R-H-NH2], the Ki is < 100 µM.

For WIREK-NH2 [W-I-R-E-K-NH2], the Ki was < 100 µM.

In the case of Ac-GYIRG-NH2 [Ac-G-Y-I-R-G-NH2], the Ki was < 100 µM.

On to GYIRT-NH2 [G-Y-I-R-T-NH2], for which the Ki is < 100 µM.

On to GYIRI-NH2 [G-Y-I-R-I-NH2], for which the Ki was < 100 µM.

With GYIRK-NH2 [G-Y-I-R-K-NH2], the Ki is < 100 µM.

GYIRG (modifications not checked) [G-Y-I-R-G]: the Ki was < 100 µM.

Turning to Ac-GYIRL-NH2 [Ac-G-Y-I-R-L-NH2], the inhibition constant (Ki) is < 100 µM.

Regarding GYIRL-NH2 [G-Y-I-R-L-NH2], the Ki was < 100 µM.

Consider GYIRG-NH2 [G-Y-I-R-G-NH2], for which the Ki was < 100 µM.
